The series concerns the molecule itself. The series is described as follows: SEC. (In general: Size exclusion chromatography separates by hydrodynamic size, large species first.)

B1: Death Associated Protein Kinase 1 (DAPK1) K42W, HA tagged, kinase dead (enzyme, human, UniProt P53355 1-1430, looked up)
chain: MTVFRQENVDDYYDTGEELGSGQFAVVKKCREKSTGLQYAAWFIKKRRTKSSRRGVSREDIEREVSILKEIQHPNVITLHEVYENKTDVILILELVAGGELFDFLAEKESLTEEEATEFLKQILNGVYYLHSLQIAHFDLKPENIMLLDRNVPKPRIKIIDFGLAHKIDFGNEFKNIFGTPEFVAPEIVNYEPLGLEADMWSIGVITYILLSGASPFLGDTKQETLANVSAVNYEFEDEYFSNTSALAKDFIRRLLVKDPKKRMTIQDSLQHPWIKPKDTQQALSRKASAVNMEKFKKFAARKKWKQSVRLISLCQRLSRSFLSRSNMSVARSDDTLDEEDSFVMKAIIHAINDDNVPGLQHLLGSLSNYDVNQPNKHGTPPLLIAAGCGNIQILQLLIKRGSRIDVQDKGGSNAVYWAARHGHVDTLKFLSENKCPLDVKDKSGEMALHVAARYGHADVAQLLCSFGSNPNIQDKEEETPLHCAAWHGYYSVAKALCEAGCNVNIKNREGETPLLTASARGYHDIVECLAEHGADLNACDKDGHIALHLAVRRCQMEVIKTLLSQGCFVDYQDRHGNTPLHVACKDGNMPIVVALCEANCNLDISNKYGRTPLHLAANNGILDVVRYLCLMGASVEALTTDGKTAEDLARSEQHEHVAGLLARLRKDTHRGLFIQQLRPTQNLQPRIKLKLFGHSGSGKTTLVESLKCGLLRSFFRRRRPRLSSTNSSRFPPSPLASKPTVSVSINNLYPGCENVSVRSRSMMFEPGLTKGMLEVFVAPTHHPHCSADDQSTKAIDIQNAYLNGVGDFSVWEFSGNPVYFCCYDYFAANDPTSIHVVVFSLEEPYEIQLNQVIFWLSFLKSLVPVEEPIAFGGKLKNPLQVVLVATHADIMNVPRPAGGEFGYDKDTSLLKEIRNRFGNDLHISNKLFVLDAGASGSKDMKVLRNHLQEIRSQIVSVCPPMTHLCEKIISTLPSWRKLNGPNQLMSLQQFVYDVQDQLNPLASEEDLRRIAQQLHSTGEINIMQSETVQDVLLLDPRWLCTNVLGKLLSVETPRALHHYRGRYTVEDIQRLVPDSDVEELLQILDAMDICARDLSSGTMVDVPALIKTDNLHRSWADEEDEVMVYGGVRIVPVEHLTPFPCGIFHKVQVNLCRWIHQQSTEGDADIRLWVNGCKLANRGAELLVLLVNHGQGIEVQVRGLETEKIKCCLLLDSVCSTIENVMATTLPGLLTVKHYLSPQQLREHHEPVMIYQPRDFFRAQTLKETSLTNTMGGYKESFSSIMCFGCHDVYSQASLGMDIHASDLNLLTRRKLSRLLDPPDPLGKDWCLLAMNLGLPDLVAKYNTSNGAPKDFLPSPLHALLREWTTYPESTVGTLMSKLRELGRRDAADFLLKASSVFKINLDGNGQEAYASSCNSGTSYNSISSVVSR
For orientation: stoichiometry N means the number of molecules, sites or subunits per partner or assembly. Take B1: the “stoichiometry N” value is 2.

The record behind these values is article PMC3458246 (Scientific Reports, 2012).
